Here are results for one protein from article PMC3913438, “Nucleotide Pyrophosphatase/Phosphodiesterase 1 Exerts a Negative Effect on Starch Accumulation and Growth in Rice Seedlings under High Temperature and CO2 Concentration Conditions” (Plant and Cell Physiology, 2013).

Common to all, as to test: purified protein
Substrate in data set [1]: O=c1ccn([C@@H]2O[C@H](COP(=O)(O)OP(=O)(O)O)[C@@H](O)[C@H]2O)c(=O)[nH]1
The conditions noted are these: 37°C, optimal pH.

Substrate in data set [2]: Nc1ccn([C@@H]2O[C@H](COP(=O)(O)OP(=O)(O)O)[C@@H](O)[C@H]2O)c(=O)n1
The data set is classed as biochemical, Oryza sativa. The conditions noted are these: 37°C, optimal pH.

Substrate in data set [3]: Nc1nc2c(ncn2[C@@H]2O[C@H](COP(=O)(O)OP(=O)(O)O)[C@@H](O)[C@H]2O)c(=O)[nH]1
The data set is classed as biochemical, Oryza sativa. The conditions noted are these: 37°C, optimal pH.

Substrate in data set [4]: Nc1ncnc2c1ncn2[C@@H]1O[C@H](COP(=O)(O)OP(=O)(O)O)[C@@H](O)[C@H]1O
The data set is classed as biochemical, Oryza sativa. The conditions noted are these: 37°C, optimal pH (pH 4.5 with ADP), no metal required, pH 4.5.

Substrate in data set [5]: O=[N+]([O-])c1ccc(OP(=O)(O)Oc2ccc([N+](=O)[O-])cc2)cc1
The data set is classed as biochemical, Oryza sativa. The conditions noted are these: 37°C, optimal pH.

Substrate in data set [6]: O=c1[nH]cnc2c1ncn2[C@@H]1O[C@H](COP(=O)(O)OP(=O)(O)O)[C@@H](O)[C@H]1O
The data set is classed as biochemical, Oryza sativa. The conditions noted are these: 37°C, optimal pH.

B1: NPP2 (Oryza sativa Japonica Group) (protein)
chain: RGDEQPLSRIAIERATVAAVDSASVKAQPTVLGLKGQSSDWVVVEFSHPKPSNDDWIGVFSPSGFSSEICQPEYYGDLPPYLCTSPIKFQYANFNNADYNRSGKGLLRLQLINQREDFSFALFSGGLSAPKLIAISNKVSFQNPKAPVYPRLAQGKSWNEMTVTWTSGYSIKEAIPFVEWGHKGGNQMLSPAGTLTFSRNSMCGSPARTVGWRDPGYIHTSFLKELWPDSLYTYRLGHRLLDGTHIWSKSYSFRASPYPGQDSVQRVVIFGDMGKAEIDGSDEYGNYEQASLYTTNQLIKELDSIDMVIHIGDLSYANGYLSQWDQFTQQIEPIASTVPYMIGSGNHERDWPGSGSFYGHNDSGGECGVPTQTMFYVPAENRAKLWYSTDYGMFRFCIADTEQDWRPGTEQYKFIEQCLSSVDRSKQPWLIFLAHRVLGYSSASWYEIMMGSYGEPMGRDGLEELWQKYKVDLAVFGHIHSYERTCPIYQNRCVQDGSNLYTGQFNATTHVIVGGGGAMLSPFRATVPYWSFFRDYDFGFSKLTALNHSTLLFEYKKSRDGKVYDHFTISRDYRDIMACSIDNCPRTTLAV
notes: recombinant, purified from transgenic rice cells (UNP2); 71 kDa SDS-PAGE, 374 kDa gel filtration; gene on chromosome 12
Consider B1, for which the Km in data set [1] was found to be 1200 µM; in data set [2], 1900 µM; in data set [3] it was 900 µM; in data set [4], 1100 µM; in data set [5], 2600 µM; in data set [6], 2200 µM. Further, the Vmax is 85 µmol/min/mg in data set [1]; 76 µmol/min/mg in data set [2]; 24 µmol/min/mg in data set [3]; 60 µmol/min/mg in data set [5]; 75 µmol/min/mg in data set [6]. The kcat in data set [1] came out at 101 s⁻¹; in data set [2] it was 89 s⁻¹; in data set [3], 28 s⁻¹; in data set [4] it was 80 s⁻¹; in data set [5], 71 s⁻¹; in data set [6], 88 s⁻¹. Further, the kcat/Km in data set [1] came to 84000 M⁻¹ s⁻¹; in data set [2], 47000 M⁻¹ s⁻¹; in data set [3], 32000 M⁻¹ s⁻¹; in data set [4], 73000 M⁻¹ s⁻¹; in data set [5] it was 27000 M⁻¹ s⁻¹; in data set [6] it was 40000 M⁻¹ s⁻¹.

In general, Km refers to the substrate concentration at which the rate is half of its maximum. A word on the Vmax: it is the top rate of the reaction or transport when substrate is in excess. The term kcat denotes the number of substrate molecules converted per active site and unit of time at saturation. What is called kcat/Km is the turnover number divided by the Michaelis constant.
